Publication PMC12576823

B1: 142F1 Fab (anti-LDLR) (Fab, V domains shown)
VH: EVQLVESGGGLVQPGGSLRLSCAASGFNVYSSSIHWVRQAPGKGLEWVASISSYYGSTYYADSVKGRFTISADTSKNTAYLQMNSLRAEDTAVYYCARWYGYGYYHPYYFGRSYGFDYWGQGTLVTVSS
VL: DIQMTQSPSSLSASVGDRVTITCRASQSVSSAVAWYQQKPGKAPKLLIYSASSLYSGVPSRFSGSRSGTDFTLTISSLQPEDFATYYCQQEWQSLFTFGQGTKVEIK
B2: 142F6 Fab (anti-LDLR) (Fab, V domains shown)
VH: EVQLVESGGGLVQPGGSLRLSCAASGFNFSSSSIHWVRQAPGKGLEWVASIYSSSGYTYYADSVKGRFTISADTSKNTAYLQMNSLRAEDTAVYYCARKWYYGAMDYWGQGTLVTVSS
VL: DIQMTQSPSSLSASVGDRVTITCRASQSVSSAVAWYQQKPGKAPKLLIYSASSLYSGVPSRFSGSRSGTDFTLTISSLQPEDFATYYCQQSSTIWTPLTFGQGTKVEIK

Biological target: biotinylated cLDLR-TEV-Fc antigen (cleaved form of the low-density lipoprotein receptor) (UniProt P01130)
Chain of UniProt P01130 (P01130 22-788): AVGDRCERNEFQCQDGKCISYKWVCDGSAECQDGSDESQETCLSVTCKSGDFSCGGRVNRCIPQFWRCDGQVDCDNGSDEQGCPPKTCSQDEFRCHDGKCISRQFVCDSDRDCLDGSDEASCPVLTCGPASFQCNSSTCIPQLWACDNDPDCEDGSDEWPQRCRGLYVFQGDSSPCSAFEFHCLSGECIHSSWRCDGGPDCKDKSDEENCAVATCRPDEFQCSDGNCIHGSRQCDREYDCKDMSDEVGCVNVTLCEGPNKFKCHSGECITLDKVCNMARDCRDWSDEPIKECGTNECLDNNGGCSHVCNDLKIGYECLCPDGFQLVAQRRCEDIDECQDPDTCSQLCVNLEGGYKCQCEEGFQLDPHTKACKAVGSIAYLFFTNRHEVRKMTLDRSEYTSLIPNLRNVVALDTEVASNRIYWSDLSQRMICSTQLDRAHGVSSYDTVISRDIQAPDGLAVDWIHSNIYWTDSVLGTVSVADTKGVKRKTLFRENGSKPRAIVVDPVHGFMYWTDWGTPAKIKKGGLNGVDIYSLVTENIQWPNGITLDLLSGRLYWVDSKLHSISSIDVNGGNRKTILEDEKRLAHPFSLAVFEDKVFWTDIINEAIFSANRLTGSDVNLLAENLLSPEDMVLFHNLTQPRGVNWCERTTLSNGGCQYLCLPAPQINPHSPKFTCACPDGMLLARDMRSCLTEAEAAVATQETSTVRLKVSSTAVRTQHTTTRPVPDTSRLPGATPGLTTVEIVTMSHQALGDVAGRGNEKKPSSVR
Assay: BLI; Octet RED384, room temperature; 20 nM biotinylated antigen-Fc immobilised on SA biosensor; monomeric Fab as analyte in PBS, 0.05% Tween-20, 0.2% BSA; 2:1 heterogeneous ligand model, global fit

Row | Kd [nM] | Binder
1 | 5.8 | B1
2 | 16 | B2
